T1: MICB005-ECD-HISAvi (human, UniProt Q29980 24-309)
T1 construct: Two sources under one name in the two kinetic assays; also called MICB005 polypeptide
T1 sequence: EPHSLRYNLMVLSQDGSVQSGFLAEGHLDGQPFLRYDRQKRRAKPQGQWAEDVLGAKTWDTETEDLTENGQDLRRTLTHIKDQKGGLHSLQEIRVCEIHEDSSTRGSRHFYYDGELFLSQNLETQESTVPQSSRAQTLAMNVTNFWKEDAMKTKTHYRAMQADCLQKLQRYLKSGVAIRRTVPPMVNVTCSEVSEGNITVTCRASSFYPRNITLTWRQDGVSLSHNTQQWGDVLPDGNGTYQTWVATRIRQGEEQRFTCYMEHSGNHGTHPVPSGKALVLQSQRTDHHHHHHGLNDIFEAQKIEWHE

T2: human MICA002 on cells (human)
T2 chain: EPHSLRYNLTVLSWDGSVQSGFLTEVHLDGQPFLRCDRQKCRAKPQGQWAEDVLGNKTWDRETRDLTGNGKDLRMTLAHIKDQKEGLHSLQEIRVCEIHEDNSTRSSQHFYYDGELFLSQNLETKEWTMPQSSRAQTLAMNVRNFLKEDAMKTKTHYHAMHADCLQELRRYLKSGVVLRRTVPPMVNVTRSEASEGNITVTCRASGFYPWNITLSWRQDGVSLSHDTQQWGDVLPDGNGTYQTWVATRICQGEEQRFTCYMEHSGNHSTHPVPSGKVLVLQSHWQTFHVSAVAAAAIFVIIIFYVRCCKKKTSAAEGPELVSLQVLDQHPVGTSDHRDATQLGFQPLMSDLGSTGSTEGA

T3: MICA008-ECD-HISAvi (human)
T3 construct: Two sources under one name in the two kinetic assays; also called MICA008 polypeptide
T3 chain: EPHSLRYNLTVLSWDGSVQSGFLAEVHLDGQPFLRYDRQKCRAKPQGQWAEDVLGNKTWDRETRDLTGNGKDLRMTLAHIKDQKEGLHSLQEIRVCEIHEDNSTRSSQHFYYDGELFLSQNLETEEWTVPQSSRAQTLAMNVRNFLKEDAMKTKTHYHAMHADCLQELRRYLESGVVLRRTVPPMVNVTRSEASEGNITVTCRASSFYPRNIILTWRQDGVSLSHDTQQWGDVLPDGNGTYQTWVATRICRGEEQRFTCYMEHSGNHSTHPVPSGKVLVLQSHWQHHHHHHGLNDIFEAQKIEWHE

T4: MICA002-ECD-HISAvi (human, UniProt Q29983 24-308)
T4 construct: also called MICA002 polypeptide
T4 chain: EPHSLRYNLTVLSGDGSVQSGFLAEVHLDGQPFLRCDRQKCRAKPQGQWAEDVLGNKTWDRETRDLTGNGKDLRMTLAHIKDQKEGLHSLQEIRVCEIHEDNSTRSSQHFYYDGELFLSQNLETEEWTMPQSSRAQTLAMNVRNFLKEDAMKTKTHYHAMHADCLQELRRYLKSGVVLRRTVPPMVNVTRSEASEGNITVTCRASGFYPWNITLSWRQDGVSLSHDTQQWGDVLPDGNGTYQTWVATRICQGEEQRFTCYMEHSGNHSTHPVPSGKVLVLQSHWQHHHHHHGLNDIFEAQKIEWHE

T5: MICA004-ECD-HISAvi (human)
T5 construct: also called MICA004 polypeptide
T5 chain: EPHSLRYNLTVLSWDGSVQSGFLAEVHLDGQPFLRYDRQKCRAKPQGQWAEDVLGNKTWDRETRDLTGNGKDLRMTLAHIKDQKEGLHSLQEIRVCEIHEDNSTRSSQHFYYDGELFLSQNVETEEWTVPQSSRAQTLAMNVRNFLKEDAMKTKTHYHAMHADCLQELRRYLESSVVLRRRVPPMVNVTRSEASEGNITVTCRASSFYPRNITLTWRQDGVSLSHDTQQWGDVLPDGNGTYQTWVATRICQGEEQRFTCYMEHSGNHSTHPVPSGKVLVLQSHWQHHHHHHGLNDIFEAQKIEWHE


How the values were obtained:
MICB005-ECD-HISAvi [1] = biological target: T1, MICB005-ECD-HISAvi; test: BLI (GatorPrime); antibody on anti-hIgG Fc probe, monomeric antigen in solution;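 note: binding kinetics of anti-MICA/B antibodies measured by biolayer interferometry, with dissociation followed for about 10 min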
Description: (§1) The binding kinetics of the antibodies were also measured using the GatorPrime BLI (Biolayer Interferometry) system (Gator Bio, USA). Specifically, the anti-MICA/B antibodies were loaded with HFC (Anti-hIgG Fc, Gator Bio, Cat #: 160003). […] The dissociation kinetics were monitored for approximately 10 minutes. The probes were regenerated between binding cycles with Regeneration Buffer (Gator Bio, Cat #: 120012). Binding kinetics were analyzed using software supplied by the manufacturer.

MICA009Avi = biological target: T6, MICA009Avi (human); test: as above
T6 construct: extracellular domain
Description: as §1

human MICB005 on cells = biological target: T7, human MICB005 on cells (human); test: flow cytometry, CHO-MICB005 cells
T7 construct: whole, on cells; also called CHO-MICB005; C1R-MICB005
Description: (§2) IgG1 is an isotype control (IgG). The antibody binding signals of APC (gMFI) to MICA/B were measured by flow cytometry.
(§3) After an incubation time of 30 minutes, the plate was centrifuged and cells were washed with PBS three times. […] After mixing for 30 minutes at room temperature, cells were washed with PBS twice. Fluorescent signal was detected and quantified by flow cytometry (Attune™ CytPix™, ThermoFisher) within the population of live cells (viability dye PI negative).

human MICA004 on cells = biological target: T8, human MICA004 on cells (human); test: flow cytometry, CHO-MICA004 cells
T8 construct: whole, on cells; also called CHO-MICA004; C1R-MICA004
Description: as §2, §3

MICB005-ECD-HISAvi [2] = biological target: T1, MICB005-ECD-HISAvi; test: SPR (Carterra); antibody captured by anti-human Fc, monomeric ECD antigen injected;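 note: dissociation phase followed for about 10 min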
Description: (§4) The dissociation kinetics were monitored for approximately 10 minutes. The chip surface was regenerated between binding cycles with 10 mM glycine HCl, pH 1.7. Binding kinetics were analyzed using software supplied by the manufacturer.

human MICA008 on cells [3] = biological target: T9, human MICA008 on cells (human); test: flow cytometry, HeLa cells (MICA008)
T9 construct: whole, on cells; also called CHO-MICA008; C1R-MICA008
Description: as §2, §3

human MICA008 on cells [4] = biological target: T9, human MICA008 on cells; test: flow cytometry, CHO-MICA008 cells
Description: as §2, §3

human MICA002 on cells = biological target: T2, human MICA002 on cells; test: flow cytometry, CHO-MICA002 cells
Description: CHO-MICA002 cells were incubated with titrated anti-MICA/B antibodies and then APC-labeled anti-human Fc antibody. […] The antibody binding signals of APC (gMFI) to MICA/B were measured by flow cytometry.
as §3

MICA008-ECD-HISAvi [5] = biological target: T3, MICA008-ECD-HISAvi; test: SPR (Carterra); antibody captured by anti-human Fc, monomeric ECD antigen injected;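 note: dissociation phase followed for about 10 min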
Description: as §4

MICA002-ECD-HISAvi [6] = biological target: T4, MICA002-ECD-HISAvi; test: as above
Description: as §4

MICA004-ECD-HISAvi [7] = biological target: T5, MICA004-ECD-HISAvi; test: as above
Description: as §4

MICA008-ECD-HISAvi [8] = biological target: T3, MICA008-ECD-HISAvi; test: BLI (GatorPrime); antibody on anti-hIgG Fc probe, monomeric antigen in solution;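 note: binding kinetics of anti-MICA/B antibodies measured by biolayer interferometry, with dissociation followed for about 10 min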
Description: as §1

MICA004-ECD-HISAvi [9] = biological target: T5, MICA004-ECD-HISAvi; test: as above
Description: as §1

MICA002-ECD-HISAvi [10] = biological target: T4, MICA002-ECD-HISAvi; test: as above
Description: as §1

Kd (MICB005-ECD-HISAvi [1]) [nM]	Kd (MICA009Avi) [nM]	EC50 (human MICB005 on cells) [µg/mL]	EC50 (human MICA004 on cells) [µg/mL]	Kd (MICB005-ECD-HISAvi [2]) [nM]	EC50 (human MICA008 on cells [3]) [µg/mL]	EC50 (human MICA008 on cells [4]) [µg/mL]	EC50 (human MICA002 on cells) [µg/mL]	Kd (MICA008-ECD-HISAvi [5]) [nM]	Kd (MICA002-ECD-HISAvi [6]) [nM]	Kd (MICA004-ECD-HISAvi [7]) [nM]	Kd (MICA008-ECD-HISAvi [8]) [nM]	Kd (MICA004-ECD-HISAvi [9]) [nM]	binding result (MICA002-ECD-HISAvi [6])	binding result (MICA008-ECD-HISAvi [8])	binding result (MICA002-ECD-HISAvi [10])	binding result (MICB005-ECD-HISAvi [1])	binding result (MICA004-ECD-HISAvi [9])	Binder
–	–	1.4	7.27	5.37	4.27	1.31	3.68	54.8	14.4	139	–	–	–	–	–	–	–	#39 (antibody, human IgG1, V domains shown, also called PL114G03; Hit ID 39) VH: QVQLQQSGAELVRPGTSVKVSCKASGYAFTDYLIEWVKQRPGQGLEWIGGINPGSGSTNYNEKFKGKAILTADKSSSTAYMQLSSLTSDDSAVYFCARLDGNYVGYWGQGTTLTVSS VL: DILLTQSPASLSASVGETVTITCRASGNIHNYLAWYQQKQGKSPQLLVYHAKTLADGVPSRFSGSGSGTQYSLKINSLQPEDFGSYYCQHFWSTPWTFGGGTKLEIK
–	–	–	–	–	–	–	–	–	–	–	–	–	–	no binding	no binding	no binding	no binding	CM33322 (antibody, human IgG1, kappa) heavy: not shown light: DIVMTQTPLSSPVTLGQPASISCRSSQSLVHRDGNTYLSWFLQRPGQAPRLLIYRISNRFSGVPDRFSGSGAGTDFTLKISRVEAEDVGVYYCMQATQIPNTFGQGTKLEIKRTVAAPSVFIFPPSDEQLKSGTASVVCLLNNFYPREAKVQWKVDNALQSGNSQESVTEQDSKDSTYSLSSTLTLSKADYEKHKVYACEVTHQGLSSPVTKSFNRGEC
–	–	1.42	3.93	1.78	1.85	1.1	2.48	7.04	2.49	3.77	–	–	–	–	–	–	–	#38 (antibody, human IgG1, V domains shown, also called PL114H02; Hit ID 38) VH: QVQLQQSGAELARPGASVKLSCKASGYTFSIHWMQWVKQRPGQGLEWIGAIYPGNGDTKYTQKFKGKATLTADKSSSTAYMQLSNLASEDSAVYYCATLYGNYEAYWGQGTLVTVSA VL: DIVLTQSPASLSASVGETVTITCGASENIYGALNWYQRKQGKSPQLLIYGTTNLADGMSSRFSGSGSGRQYSLKISSLHPDDVATYYCQNVLTTPPWTFGGGTKLEIK
–	–	0.445	0.306	45.8	0.183	0.085	0.176	20.5	13.9	30.4	–	–	–	–	–	–	–	#40 (antibody, human IgG1, V domains shown, also called PL113C03; Hit ID 40) VH: QVQLQQSGPELVKPGASVKVSCKASGYAFTKYNIYWVKQSHGKSLEWIGYIDPYNGGTVYNQKFKGKATLTVDKSSSTAYMHLNSLTSEDSAVYYCATTDGYSLFTYWGQGTLVTVSA VL: DIQMTQTTSSLSASLGDRVTITCSAGQGINNYLNWYQQKPDGTVKLLIFYTSSLQSGVPSRFSGSGSGADYSLTISNLEPEDIATYYCQQYSKLPLTFGAGTKLELK
–	–	0.249	0.248	23.1	0.189	0.063	0.2	21.2	20.7	40.1	–	–	–	–	–	–	–	#36 (antibody, human IgG1, V domains shown, also called PL116H11; Hit ID 36) VH: QVQLQQSGPELVKPGASVKVSCKASGYAFTKYNIYWVKQSHGKSLEWIGYIDPYNGGTVYNQKFKGKATLTVDKSSSTAYMHLNSLTSEDSAVYYCATTDGYSLFTYWGQGTLVTVSA VL: DIQMTQTTSSLSASLGDRVTISCRASQDISNYLNWYQQKPDGTVKLLIYYTSRLHSGVPSRFSGSGSGTDYSLTISNLEQEDIATYFCQQGNTLPFTFGSGTKLEIK

Continued, binder first:

Binder	Kd (MICB005-ECD-HISAvi [1]) [nM]	Kd (MICA009Avi) [nM]	EC50 (human MICB005 on cells) [µg/mL]	EC50 (human MICA004 on cells) [µg/mL]	Kd (MICB005-ECD-HISAvi [2]) [nM]	EC50 (human MICA008 on cells [3]) [µg/mL]	EC50 (human MICA008 on cells [4]) [µg/mL]	EC50 (human MICA002 on cells) [µg/mL]	Kd (MICA008-ECD-HISAvi [5]) [nM]	Kd (MICA002-ECD-HISAvi [6]) [nM]	Kd (MICA004-ECD-HISAvi [7]) [nM]	Kd (MICA008-ECD-HISAvi [8]) [nM]	Kd (MICA004-ECD-HISAvi [9]) [nM]	binding result (MICA002-ECD-HISAvi [6])	binding result (MICA008-ECD-HISAvi [8])	binding result (MICA002-ECD-HISAvi [10])	binding result (MICB005-ECD-HISAvi [1])	binding result (MICA004-ECD-HISAvi [9])
6E1.1.12 (antibody, human IgG1, kappa, V domains shown) VH: QGQMQQSGAELVKPGASVKLSCKTSGFTFSDNYISWLKQKPGQSLEWIAWIYAGTGGSSYNQKFRDKAQLTVDTSSRTAYMQLSSLTTEDSAIYYCARHDYYGTSGAWFAYWGRGTLVTVSA VL: DVLMTQTPLSLPVSLGDQASISCRSSQHIVHSNENTYLEWYLQKPGQSPKLLIYKVSNRFSGVPDRFSGSGSGTDFTLKISRVEAEDLGVYYCFQGSHVPWTFGGGTKVEIKR	4.54	3.94	0.184	0.239	8.62	0.269	0.15	0.882	–	–	–	–	–	–	–	–	–	–
B10G5 (antibody, human IgG1, kappa, V domains shown, also called B10G5-2; P2B10G5) VH: EVQLEESGPGLVKPSQSLSLTCTVTGYSITSDYAWNWIRQFPGNKLEWMGYISYSGSTNYNPSLKSRISITRDTSKNQFFLQLNSVITEDTATYYCARGGTYFDYWGQGTTLTVSS VL: DIVLTQTTSYLSVSLGGRVTIACKASAHINNWLAWYQQKPGNAPRLLISDATSLETGVPSRFSGSGSGKDYTLSITSLQTEDVATYYCQHYWSTPWTFGGGTKLEIKR	1.35	0.716	–	–	2.27	–	–	–	0.846	–	6.92	0.625	1.16	no binding	–	–	–	–
#31 (antibody, human IgG1, V domains shown, also called PL116D11; Hit ID 31) VH: EVQLQQSGPELVKPGASVKVSCKASGYAFTKYNIYWVKQSHGKSLEWIGYIDPYNGGTVQNQKFKGKATLTVDKSSSTAYMHLNSLTSEDSAVYYCATTDGYSLFTYWGQGTLVTVSS VL: DIQMTQTTSSLSASLGDRVTISCRASQDIGNYLNWYQQKPDGTVKLLIYYTSRLHSGVPSRFSGSGSGTDYSLTISNLEQEDIATYFCQQGNTLPFTFGSGTKLEIK	–	–	0.21	0.221	15	0.183	0.051	0.232	14.4	13.2	25.3	–	–	–	–	–	–	–
#34 (antibody, human IgG1, V domains shown, also called PL111H04; Hit ID 34) VH: QVQLKQSGPELVKPGASVKVSCKASGYAFTKYNIYWVKQSHGKSLEWIGYIDPYNGGTVQNQKFKGKATLTVDKSSSTAYMHLNSLTSEDSAVYYCATTDGYSLFTYWGQGTLVTVSS VL: DIVLTQSPTTMAASPGEKITITCSASSSISSNYLHWYQQKPGFSPKLLIYRTSNLASGVPARFSGSGSGTSYSLTIGTMEAEDVATYYCQQGSSIPFTFGSGTKLEIK	–	–	0.278	0.202	38	0.122	0.048	0.144	29.2	24.9	44.5	–	–	–	–	–	–	–

Reference: patent US20250368742A1 (D2M BIOTHERAPEUTICS, published 2025)
